Measurements: patent US20020111475A1 (IMMUNEX, published 2002)
Positions count from the first letter of the chain named. Names and notes keep the numbering of the source.

T1: human flt3 on BAF/hflt3 cells (BAF-BO3 cells transfected with human flt3 cDNA) (human, UniProt P36888 27-993)
T1 sequence (looked up): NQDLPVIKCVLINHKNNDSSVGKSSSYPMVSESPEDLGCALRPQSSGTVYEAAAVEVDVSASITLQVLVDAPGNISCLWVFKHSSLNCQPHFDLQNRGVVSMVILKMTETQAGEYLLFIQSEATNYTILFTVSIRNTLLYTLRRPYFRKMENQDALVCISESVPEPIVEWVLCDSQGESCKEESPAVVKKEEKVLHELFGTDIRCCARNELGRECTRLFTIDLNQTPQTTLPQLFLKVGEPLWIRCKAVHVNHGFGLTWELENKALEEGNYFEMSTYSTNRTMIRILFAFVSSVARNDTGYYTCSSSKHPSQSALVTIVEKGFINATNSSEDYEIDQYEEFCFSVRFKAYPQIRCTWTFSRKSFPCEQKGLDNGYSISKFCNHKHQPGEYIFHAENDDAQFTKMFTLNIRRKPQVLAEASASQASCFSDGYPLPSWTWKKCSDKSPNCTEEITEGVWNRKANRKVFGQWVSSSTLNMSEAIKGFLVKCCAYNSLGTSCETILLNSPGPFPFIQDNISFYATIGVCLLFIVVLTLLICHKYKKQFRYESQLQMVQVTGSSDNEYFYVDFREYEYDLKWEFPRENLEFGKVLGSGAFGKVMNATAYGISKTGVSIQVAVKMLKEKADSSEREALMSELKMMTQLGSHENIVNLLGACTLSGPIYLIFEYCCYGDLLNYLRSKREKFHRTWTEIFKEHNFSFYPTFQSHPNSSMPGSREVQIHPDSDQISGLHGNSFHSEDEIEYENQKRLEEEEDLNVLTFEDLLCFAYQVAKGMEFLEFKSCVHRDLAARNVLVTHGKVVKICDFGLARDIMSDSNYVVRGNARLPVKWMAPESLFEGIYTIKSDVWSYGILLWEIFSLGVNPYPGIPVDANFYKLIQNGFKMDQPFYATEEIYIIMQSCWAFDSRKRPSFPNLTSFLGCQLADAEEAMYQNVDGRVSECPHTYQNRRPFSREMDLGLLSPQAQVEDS

T2: flt3 on murine WWF7 cells
T2 sequence (Q00342 whole entry, looked up): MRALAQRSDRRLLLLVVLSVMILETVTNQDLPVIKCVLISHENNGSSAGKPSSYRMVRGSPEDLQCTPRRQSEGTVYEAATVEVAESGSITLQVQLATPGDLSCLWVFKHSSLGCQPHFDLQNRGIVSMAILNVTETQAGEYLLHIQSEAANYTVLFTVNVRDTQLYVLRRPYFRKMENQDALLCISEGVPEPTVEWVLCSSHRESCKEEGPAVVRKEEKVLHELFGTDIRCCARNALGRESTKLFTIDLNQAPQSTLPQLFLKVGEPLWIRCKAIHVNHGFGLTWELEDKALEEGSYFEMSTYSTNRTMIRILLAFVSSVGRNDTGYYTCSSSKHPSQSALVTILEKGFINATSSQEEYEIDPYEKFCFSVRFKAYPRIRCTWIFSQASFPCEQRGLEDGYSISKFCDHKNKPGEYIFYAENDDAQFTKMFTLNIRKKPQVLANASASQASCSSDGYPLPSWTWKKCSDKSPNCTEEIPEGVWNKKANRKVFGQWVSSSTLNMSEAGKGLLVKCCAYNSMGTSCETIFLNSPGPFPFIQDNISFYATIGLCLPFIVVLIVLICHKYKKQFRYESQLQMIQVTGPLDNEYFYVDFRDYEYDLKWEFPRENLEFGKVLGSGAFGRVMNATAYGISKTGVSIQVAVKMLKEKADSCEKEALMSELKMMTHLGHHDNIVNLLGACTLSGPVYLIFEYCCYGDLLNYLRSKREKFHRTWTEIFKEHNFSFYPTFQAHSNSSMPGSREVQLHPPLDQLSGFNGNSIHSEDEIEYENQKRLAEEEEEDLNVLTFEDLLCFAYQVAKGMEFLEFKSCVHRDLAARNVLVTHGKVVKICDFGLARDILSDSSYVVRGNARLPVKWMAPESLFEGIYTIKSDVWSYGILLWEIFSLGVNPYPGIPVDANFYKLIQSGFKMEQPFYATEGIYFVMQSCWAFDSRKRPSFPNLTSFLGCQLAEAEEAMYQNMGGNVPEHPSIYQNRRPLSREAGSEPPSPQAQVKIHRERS

B1: flt3-L multiple mutant K84E/Q122R (ligand)
chain: LSGTQDCSFQHSPISSDFAVKIRELSDYLLQDYPVTVASNLQDEELCGGLWRLVLAQRWMERLKTVAGSKMQGLLERVNTEIHFVTECAFQPPPSCLRFVQTNISRLLQETSEQLVALKPWITRRNFARCLELQCQPDSSTLPPPWSPRPLEATAP
notes: also called double mutant K84E/Q122R
B2: flt3-L quadruply substituted mutant L-3H/H8Y/K84E/Q122R (ligand)
chain: B1 chain with L1H, H11Y
notes: Constructed by PCR mutagenesis from K84E/Q122R, expressed in yeast and purified
B3: flt3-L mutant H8Y (ligand)
chain: B1 chain with H11Y, E87K, R125Q
notes: yeast supernatant and purified protein (dimer)
B4: flt3-L mutant F15L (ligand)
chain: LSGTQDCSFQHSPISSDLAVKIRELSDYLLQDYPVTVASNLQDEELCGGLWRLVLAQRWMERLKTVAGSKMQGLLERVNTEIHFVTKCAFQPPPSCLRFVQTNISRLLQETSEQLVALKPWITRQNFARCLELQCQPDSSTLPPPWSPRPLEATAPTAPQPPLLLLLLLPVGLLLLAAAWCLHWQRTRRRTPRPGEQVPPVPSPQDLLLVEH
B5: flt3-L mutant P90S (ligand)
chain: B4 chain with L18F, P93S
B6: flt3-L mutant F15Y (ligand)
chain: B4 chain with L18Y
B7: flt3-L mutant R20C (ligand)
chain: B4 chain with L18F, R23C
B8: flt3-L mutant R55C (ligand)
chain: B4 chain with L18F, R58C
B9: flt3-L mutant S13F (ligand)
chain: B4 chain with S16F, L18F
B10: flt3-L mutant V75A (ligand)
chain: B4 chain with L18F, V78A
B11: flt3-L mutant F87L (ligand)
chain: B4 chain with L18F, F90L
B12: flt3-L mutant V113E (ligand)
chain: B4 chain with L18F, V116E
B13: flt3-L mutant A64T (ligand)
chain: B4 chain with L18F, A67T
B14: flt3-L mutant S13P (ligand)
chain: B4 chain with S16P, L18F
B15: flt3-L mutant R55L (ligand)
chain: B4 chain with L18F, R58L
B16: flt3-L mutant R95C (ligand)
chain: B4 chain with L18F, R98C
B17: flt3-L mutant P10S (ligand)
chain: B4 chain with P13S, L18F
B18: flt3-L mutant F124S (ligand)
chain: B4 chain with L18F, F127S
B19: flt3-L mutant F81L (ligand)
chain: B4 chain with L18F, F84L
B20: flt3-L mutant F124L (ligand)
chain: B4 chain with L18F, F127L
B21: flt3-L mutant D3G (ligand)
chain: B4 chain with D6G, L18F
B22: flt3-L mutant S9G (ligand)
chain: B4 chain with S12G, L18F

Biological target: T1, human flt3 on BAF/hflt3 cells (BAF-BO3 …)
Assay: cell-based or functional assay

Row | Binder | Sp.Ac. MUT / Sp.Ac. Wt (BAF/hflt3 cell proliferation units/ml per ng/ml purified protein)
1 | B1 | 2.9 ratio to wild type
2 | B2 | 3 ratio to wild type
3 | B3 | 2.1 ratio to wild type

Biological target: T1, human flt3 on BAF/hflt3 cells (BAF-BO3 …)
Assay: inhibition of 125I-flt3-L binding to BAF/hflt3 cells, purified protein
Experimental: Binding assays were performed using a phthalate oil separation method as described previously for murine ¹²⁵I-GM-CSF (Park et al., J. Biol. Chem. 261:4177-4183 (1986)). Briefly, BAF-BO3 cells transfected with human flt3 cDNA (0.5-1×10⁶) were incubated with serial dilutions of ¹²⁵I-flt3-L in binding medium (RPMI 1640, 2.5% bovine serum albumin, 0.2% NaN3, 20 mM Hepes, pH 7.2) in 96 well microtiter plates maintained on a mini-orbital shaker (Bellco) at 37° C. for 90 minutes. Inhibition binding assays were carried out by holding the radiolabeled flt3-L concentration constant at 0.3 nM, while the concentration of unlabeled competitor proteins ranged from 150 nM to 0.001 nM. The ratio of Kdi of mutant to wild type flt3-L, determined in at least duplicate, in a given assay was averaged over at least three independent assays and the standard error of the mean (SEM) reported. […] For this assay, cells expressing human flt3 (BAF/hflt3 cells) were constructed from BAF/B03 cells, using a procedure previously described for producing BAF/B03 cells expressing the murine flt3 (Lyman et al., Cell 75:1157-1167 (1993)). Expression of human flt3 by BAF/hflt3 cells was confirmed by examining the capacity of the cells to proliferate in response to soluble flt3-L, and by flow cytometric analysis using biotinylated flt3-L.
^aThe specific activity of purified mutant or wild type protein was determined by taking the ratio of proliferation activity in BAF/hflt3 cells (units/ml) to concentration of flt3-L protein as determined by amino acid composition (ng/ml). The ratio of specific activity of mutant to wild type flt3-L is averaged over three independent assays, and the standard error of the mean (SEM) is reported. ^bThe Kdifor wild type protein is 61 ± 19 pM (n = 2). The ratio of Kₐᵢ of mutant to wild type flt3-L is averaged over two independent assays and the standard deviation is reported.

Row | Binder | Kai MUT / Kai Wt
4 | B1 | 3.4 ratio to wild type
5 | B2 | 8.6 ratio to wild type
6 | B3 | 2.8 ratio to wild type

Biological target: T2, flt3 on murine WWF7 cells
Assay: cell-based or functional assay

Row | Binder | Sp.Ac. MUT / Sp.Ac. WT (WWF7 cell proliferation units/ml per flt3-L ng/ml by ELISA, yeast supernatant)
7 | B4 | 0 ratio to wild type
8 | B5 | 0.09 ratio to wild type
9 | B6 | 0.19 ratio to wild type
10 | B7 | 0.11 ratio to wild type
11 | B8 | 0.05 ratio to wild type
12 | B9 | 0 ratio to wild type
13 | B10 | 0.18 ratio to wild type
14 | B11 | 0.01 ratio to wild type
15 | B12 | 0.8 ratio to wild type
16 | B13 | 0.09 ratio to wild type
17 | B14 | 0 ratio to wild type
18 | B15 | 0.29 ratio to wild type
19 | B16 | 0.26 ratio to wild type
20 | B17 | 0 ratio to wild type
21 | B18 | 0 ratio to wild type
22 | B19 | 0.06 ratio to wild type
23 | B20 | 0.22 ratio to wild type
24 | B21 | 0.81 ratio to wild type
25 | B22 | 0.13 ratio to wild type
